Laboratory results reported in PMC9949351, “Chromatin localization of nucleophosmin organizes ribosome biogenesis” (Molecular cell, 2022).

B1: Fkbp39 (natural protein, S. pombe, UniProt O74191 1-361, looked up)
chain: MSLPIAVYSLSVKGKDVPAVEESTDASIHLTMASIDAGEKSNKPTTLLVKVRPRIPVEDEDDEELDEQMQELLEESQREFVLCTLKPGSLYQQPLNLTITPGDEVFFSASGDATIHLSGNFLVDEEDEEEEESDEDYDLSPTEEDLVETVSGDEESEEESESEDNSASEEDELDSAPAKKAQVKKKRTKDESEQEEAASPKKNNTKKQKVEGTPVKEKKVAFAEKLEQGPTGPAAKKEKQQASSNAPSSPKTRTLKGGVVVTDVKTGSGASATNGKKVEMRYIGKLENGKVFDKNTKGKPFAFILGRGEVIRGWDVGVAGMQEGGERKITIPAPMAYGNQSIPGIPKNSTLVFEVKLVRVH
notes: Fkbp39, S. pombe, SPBC1347.02; cloned into a pETDuet vector behind 6xHis-SUMO and an HRV-3C site; also called nucleophosmin-like protein Fkbp39; SPBC1347.02; source: E. coli Rosetta, purified (Ni Sepharose, tag removed, SP ion exchange, at times SEC); not shown: 6xHis, N-terminal, cleaved; SUMO, N-terminal, cleaved
B2: Fkbp41 (natural protein, S. pombe, UniProt Q10175 1-362, looked up)
chain: MSKEETLYSVKVDQERVPLFDEDFYKGFRSELSVRFTMAALDPRAKSNDAVTVNVITRLEHPEEDGEESDEELFQEEKFTLCTLKKGSVYQQPIDIIFSPGEEVFFERVGGDIPVYLSGTCIITNIPEEEDSSDLENDFLYGADEFSSDEEEMDDISVTSSEEEEEENGARIEELNSDEEDAEQAEEEILEKPVPKDEVAEKHSKDKLKKEEKEKKTAVDVSDSVNGKKRKTEPAGEGEQTEKKSKSTKTYPKQVLEGNVTVQDKVKGDGPAAKRKKRVSMRYIGRLTNGKVFDKNITGKPFTFNLGLEEVIKGWDVGIVGMQVGGERTIHIPAAMAYGSKRLPGIPANSDLVFDVKLLAVN
notes: Fkbp41, S. pombe, SPAC27F1.06c; cloned into a pETDuet vector behind 6xHis-SUMO and an HRV-3C site; also called nucleophosmin-like protein Fkbp41; SPAC27F1.06c; source: E. coli Rosetta (DE3), purified (Ni Sepharose, tag removed, Q ion exchange, at times SEC); not shown: 6xHis, N-terminal, cleaved; SUMO, N-terminal, cleaved
B3: 6xHis-SUMO-Fkbp39 (natural protein, S. pombe, UniProt O74191 1-361, looked up)
chain: B1 chain
notes: Fkbp39, S. pombe, SPBC1347.02; pETDuet construct with 6xHis-SUMO and an HRV-3C site, tag not removed; source: E. coli Rosetta (Fkbp39 constructs), purified; used as 6xHis-SUMO-Fkbp39; not shown: 6xHis, N-terminal, kept; SUMO, N-terminal, kept

Legend:
[1] = target: the molecule itself; experiment: mass photometry + SEC; purified Fkbp39 and Fkbp41, oligomeric state; SEC on Superdex 200 Increase 10/300 GL
Fkbp41 = target: B2; experiment: pull-down; 'in vitro co-immunoprecipitation': 12 μg each of 6xHis-SUMO-Fkbp39 and Fkbp41, 45 min at 4 °C in 30 mM HEPES-Na pH 7.5-8, 150 mM NaCl, 20 mM imidazole; Ni Sepharose resin, imidazole elution, SDS-PAGE; details: both partners purified

Binder | stoichiometry N [1] | binding result (Fkbp41)
B1 | 5 | 
B2 | 2 | 
B3 |  | binds
